How the values were obtained:
[1] = molecular target: bovine aorta ATPDase type II (78 KDa catalytic unit) (bovine) (UniProt O18956); assay: precipitation with lectin-agarose, elution with Me-alpha-D-mannopyranoside
[2] = molecular target: bovine aorta ATPDase type II (78 KDa catalytic unit) (bovine) (UniProt O18956); assay: precipitation of ADPase activity with lectin-agarose
[3] = molecular target: bovine aorta ATPDase type II (78 KDa catalytic unit) (bovine) (UniProt O18956); assay: precipitation with lectin-agarose, elution with D-GlcNAc

UniProt O18956, sequence (O18956 whole entry, form in doubt): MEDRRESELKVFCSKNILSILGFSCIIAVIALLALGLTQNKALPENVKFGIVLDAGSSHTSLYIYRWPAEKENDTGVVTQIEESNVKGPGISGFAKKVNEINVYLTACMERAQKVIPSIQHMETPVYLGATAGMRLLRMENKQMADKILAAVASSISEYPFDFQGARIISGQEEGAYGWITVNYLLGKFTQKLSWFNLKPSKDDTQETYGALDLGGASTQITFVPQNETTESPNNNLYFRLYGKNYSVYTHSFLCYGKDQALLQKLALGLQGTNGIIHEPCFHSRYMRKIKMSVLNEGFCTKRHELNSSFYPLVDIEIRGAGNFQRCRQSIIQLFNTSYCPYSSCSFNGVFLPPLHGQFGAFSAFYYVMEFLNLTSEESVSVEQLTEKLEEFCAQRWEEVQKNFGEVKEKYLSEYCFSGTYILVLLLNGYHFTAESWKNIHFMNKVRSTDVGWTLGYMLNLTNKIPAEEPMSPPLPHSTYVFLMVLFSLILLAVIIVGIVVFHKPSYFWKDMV

A Relative ADPase activity, Eluted fraction [1] of 62%, a Relative ADPase activity, Bound fraction [2] of 95% and a Relative ADPase activity, Supernatant (unbound) fraction [2] of 5% were found for “Con A conjugated to agarose (from UniProt P02866)” in this work.
A Relative ADPase activity, Eluted fraction [3] of 69%, a Relative ADPase activity, Bound fraction [2] of 95% and a Relative ADPase activity, Supernatant (unbound) fraction [2] of 5% were found for “WGA conjugated to agarose (from UniProt P10968 27-197)” in this work.
